Laboratory results published in patent publication US20220387578A1 (VANDERBILT UNIVERSITY, published 2022).
Where two headings read alike, the source gives them in different places.

Key:
[1] = biological target: H12 HA A/duck/Alberta/60/1976, recombinant (influenza A virus); assay: ELISA on coated recombinant HA
[2] = biological target: T1, H3 HA A/Texas/50/2012, recombinant soluble trimer (influenza A virus); assay: ELISA on coated recombinant HA
T1 construct: extracellular domain

[3] = biological target: A/Puerto Rico/8/1934 (Influenza A virus); assay: ELISA on coated recombinant HA
[4] = biological target: T2, H3 HA A/Hong Kong/1/1968 (H3N2), recombinant soluble trimer (influenza A virus, UniProt Q91MA7 17-530); assay: ELISA on coated recombinant HA
[5] = biological target: H5 HA A/Vietnam/1203/2004 (H5N1), recombinant (influenza A virus); assay: ELISA on coated recombinant HA
[6] = biological target: A/Duck/Czechoslovakia/1956 (Influenza A virus); assay: ELISA on coated recombinant HA
[7] = biological target: H7 HA A/New York/107/2003, recombinant (influenza A virus); assay: ELISA on coated recombinant HA
[8] = biological target: H5 HA A/Indonesia/05/2005 (H5N1), recombinant (influenza A virus); assay: ELISA on coated recombinant HA
[9] = biological target: A/Turkey/Ontario/6118/1967 (Influenza A virus); assay: ELISA on coated recombinant HA
[10] = biological target: T3, H1 HA A/Texas/36/1991 (H1N1), recombinant soluble trimer (influenza A virus); assay: ELISA on coated recombinant HA
T3 construct: extracellular domain

[11] = biological target: H2 HA A/Singapore/1/1957, recombinant soluble trimer (influenza A virus); assay: ELISA on coated recombinant HA
[12] = biological target: T2, H3 HA A/Hong Kong/1/1968 (H3N2), …; assay: ELISA on coated recombinant HA; remark: listed apart in the source
[13] = biological target: H1 HA A/South Carolina/1/1918 (H1N1) (influenza A virus, UniProt Q9WFX3 18-529); assay: BLI, biotinylated HA on streptavidin sensor
[14] = biological target: T4, eHead_H1Solomon (wild-type H1 head domain monomer) (influenza A virus, UniProt B4URD6 65-276); assay: SPR
T4 chain: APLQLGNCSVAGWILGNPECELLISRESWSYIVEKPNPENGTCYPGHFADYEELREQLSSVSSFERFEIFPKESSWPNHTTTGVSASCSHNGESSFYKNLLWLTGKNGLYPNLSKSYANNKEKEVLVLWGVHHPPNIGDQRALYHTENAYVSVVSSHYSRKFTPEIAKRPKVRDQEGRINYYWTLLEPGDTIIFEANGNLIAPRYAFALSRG

[15] = biological target: T5, eHead-H3HK68_v1 (wild-type H3 head domain monomer) (influenza A virus, UniProt Q91MA7 53-335); assay: SPR
[16] = biological target: T4, eHead_H1Solomon (wild-type H1 head …); assay: SPR (Example 4, Table E)
[17] = biological target: T5, eHead-H3HK68_v1 (wild-type H3 head …); assay: SPR (Example 4, Table E)
[18] = biological target: T2, H3 HA A/Hong Kong/1/1968 (H3N2), …; assay: BLI, biotinylated HA on streptavidin sensor

B1: mAb H5.31 (hybridoma IgG) (antibody, V domains shown)
VH: EVQLVQSGGGLVQPGGSLRLSCEASRFTSSSYWITWVRQAPGKGLEWVANIKQDGSEKYFVDSVKGRFTISRDNASNSLYLQMSSLRAEDTAVYYCARGFLERLLLGRQGAYYYGMDVWGQGTTVTVSS
VL: DIQMTQSPSSLSASVGDRVTMTCRASQSISSSLNWYQQKPGKAPKLLIYAASNLQSGVPSRFSGSGSGTDFTLTISSLQPEDFATYYCQQSYTMPPELTFGGGTKVQIK
EC50 [1]: 0.002 µg/mL | EC50 [2]: 0.936 µg/mL | EC50 [3]: 0.004 µg/mL | EC50 [4]: 0.009 µg/mL | EC50 [5]: 0.006 µg/mL | EC50 [6]: 0.006 µg/mL | EC50 [7]: > 2.5 µg/mL | EC50 [8]: > 2.5 µg/mL | EC50 [9]: 0.004 µg/mL | EC50 [10]: 0.006 µg/mL | EC50 [11]: 0.004 µg/mL

B2: FluA-20-UCA IgG (unmutated common ancestor of FluA-20) (antibody, V domains shown)
VH: QVQLQESGPGLVKPSETLSLTCTVSGGSVSSGSYYWSWIRQPPGKGLEWIGYIYYSGSTNYNPSLKSRVTISVDTSKNQFSLKLSSVTAADTAVYYCARGTEDLGYCSGGSCPNHWGQGTLVTVSS
VL: not shown
EC50 [12]: 0.021 µg/mL

B3: mAb H5.28 (hybridoma IgG) (antibody, V domains shown)
VH: EVQLVESGGGLVQPGGSLRLSCAASGFTFSTYWMTWVRQAPGKGLEWVANINQDGGEKYFVDSVKGRFTISRDNAKNSLFLQMNTLRAEDTAVYYCARGFLERLLLGRQGAYYYGMDVWGQGTTVTVSS
VL: DIQMTQSPSSLSASVGDRVSMTCRASQIISSSLNWYQQKPGKAPKLLIYAASNLQSGVPSRFSGSGSGTDFTLTISSLQPEDFATYYCQQSYSTPPELTFGGGTKVEIK
EC50 [1]: 0.269 µg/mL | EC50 [2]: > 2.5 µg/mL | EC50 [3]: 0.01 µg/mL | EC50 [4]: > 2.5 µg/mL | EC50 [5]: 0.182 µg/mL | EC50 [6]: 0.021 µg/mL | EC50 [7]: > 2.5 µg/mL | EC50 [8]: > 2.5 µg/mL | EC50 [9]: > 2.5 µg/mL | EC50 [10]: 0.022 µg/mL | EC50 [11]: 0.014 µg/mL

B4: rFluA-20 Fab (Fab, V domains shown)
VH: QVQLQESGPGLVKPSETLSLTCSVSGVSVTSDIYYWTWIRQPPGKGLEWIGYIFYNGDTNYNPSLKSRVTMSIDTSKNEFSLRLTSVTAADTAVYFCARGTEDLGYCSSGSCPNHWGQGTLVTVSS
VL: DIQMTQSPSSLSASIGDRVTITCRPSQNIRSFLNWFQHKPGKAPKLLIYAASNLQSGVPSRFSGSGSGTEFTLTIRSLQPEDFATYYCQQSYNTPPTFGQGTKVEIK
Kd [13]: 46 nM

B5: FluA20_UCA (as used in the SPR experiments of Example 4) (antibody, V domains shown)
VH: QVQLQESGPGLVKPSETLSLTCTVSGGSVSSGSYYWSWIRQPPGKGLEWIGYIYYSGSTNYNPSLKSRVTISVDTSKNQFSLKLSSVTAADTAVYYCARGTEDLGYCSGGSCPNHWGQGTLVTVSS
VL: not shown
Kd [14]: 500 nM | Kd [15]: 530 nM | Kd [16]: ~500 nM | Kd [17]: ~500 nM

B6: FluA-20 UCA Fab (Fab, V domains shown)
VH: QVQLQESGPGLVKPSETLSLTCTVSGGSVSSGSYYWSWIRQPPGKGLEWIGYIYYSGSTNYNPSLKSRVTISVDTSKNQFSLKLSSVTAADTAVYYCARGTEDLGYCSGGSCPNHWGQGTLVTVSS
VL: not shown
Kd [18]: 486 nM | Kd [13]: 937 nM
